Laboratory results taken from patent publication US20080138334A1, “Immune-Derived Moieties Reactive Against Bioactive Lipids, and Methods of Making and Using Same” (priority 2006, published 2008).
Entries after “also recorded” stand apart in the source; their conditions may differ. Where two headings read alike, the source gives them in different places. One block for each molecule: values may come before it.

What was measured:
[1] = Direct ELISA, chimeric antibody and mutants binding to S1P; settings: for Binding: antibody concentration 0.1 ug/ml, S1P-coated plate
Experimental: Microtiter ELISA plates (Costar) were coated overnight with S1P diluted in 1 M Carbonate Buffer (pH 9.5) at 37° C. for 1 hr. Plates were washed with PBS (137 mM NaCl, 2.68 mM KCl, 10.1 mM Na2HPO4, 1.76 mM KH2PO4; pH 7.4) and blocked with PBS/BSA/Tween-20 for 1 hr at room temp or overnight at 4° C. For the primary incubation (1 hr at room temp.), a standard curve using the anti-S1P mAb and the samples to be tested for binding was built using the following set of dilutions: 0.4 μg/mL, 0.2 μg/mL, 0.1 μg/mL, 0.05 μg/mL, 0.0125 μg/mL, and 0 μg/mL, and 100 μl added to each well. Plates were washed and incubated with 100 μl per well of HRP conjugated goat anti-mouse (1:20,000 dilution) (Jackson Immuno Research) or HRP conjugated goat anti-human (H+L) diluted 1:50,000 (Jackson Immuno Research) for 1 hr at room temperature. After washing, the enzymatic reaction was detected with tetramethylbenzidine (Sigma) and stopped by adding 1 M H2SO4. The optical density (OD) was measured at 450 nm using a Thermo Multiskan EX. Raw data were transferred to GraphPad software for analysis.
The chromogenic reaction was measured and reported as Optical density (OD). The concentration of the panel of antibodies was 0.1 ug/ml. No interaction of the second antibody with S1P-coated matrix alone was detected.

Caki-1 cells = test: In vitro IL-8 production, ELISA of culture supernatants; type: cell-based, human; settings: 18:1 LPA (0.2 mM), 24h, non-treated cells
Experimental: Three anti-LPA mAbs (B3, B7 and B58) were tested for their abilities to reduce in vitro IL-8 production compared to a non-specific antibody (NS). Caki-1 cells were seeded in 96 well plates and grown to confluency. After overnight serum starvation, cells were treated with 18:1 LPA (0.2 mM) with or without anti-LPA mAb B3, B7, B58 or NS (Non-Specific). After 24h, cultured supernatants of renal cancer cells (Caki-1), treated with or without LPA and in presence of increasing concentrations of the anti-LPA mAbs B3, B7 and B58, were collected and analyzed for IL-8 levels using a commercially available ELISA kit (Human Quantikine Kit, R&D Systems, Minneapolis, Minn.). […] Similar results were obtained with the other well-known pro-angiogenic factor, VEGF. The inhibition of IL-8 release by the anti-LPA mAbs was also observed in other cancerous cell lines such as the pancreatic cell line Panc-1.

[2] = Competitive ELISA for cross reactivity of anti-S1P mAb, competitor S1P; type: binding
Experimental: (§1) Screening of serum and cell supernatant for S1P-specific antibodies was by direct ELISA using the thiolated S1P analog described in Example 1 (i.e., compound 10) as the antigen. A standard ELISA was performed, as described below, except that 50 ul of sample (serum or cell supernatant) was diluted with an equal volume of PBS/0.1% Tween-20 (PBST) during the primary incubation. ELISAs were performed in 96-well high binding ELISA plates (Costar) coated with 0.1 μg of chemically-synthesized compound 10 conjugated to BSA in binding buffer (33.6 mM Na2CO3, 100 mM NaHCO3; pH 9.5). The thiolated-S1P-BSA was incubated at 37° C. for 1 hr. at 4° C. overnight in the ELISA plate wells. The plates were then washed four times with PBS (137 mM NaCl, 2.68 mM KCl, 10.14 mM Na2HPO4, 1.76 mM KH2PO4; pH 7.4) and blocked with PBST for 1 hr. at room temperature. For the primary incubation step, 75 uL of the sample (containing the S1P to be measured), was incubated with 25 uL of 0.1 ug/mL anti-S1P mAb diluted in PBST and added to a well of the ELISA plate. […] Optical density of the samples was determined by measurement at 450 nm using an EL- X-800 ELISA plate reader (Bio-Tech).
(§2) For cross reactivity, a competitive ELISA was performed as described above, except for the following alterations (FIG. 4). […] Biotin incorporation was determined as per kit protocol and ranged from 7 to II biotin molecules per antibody. […]

[3] = Competitive ELISA for cross reactivity of anti-S1P mAb, competitor SPC; type: binding; settings: competitor SPC (free phosphate linked with a choline)
Experimental: as §1, §2

[4] = Competitive ELISA for cross reactivity of anti-S1P mAb, competitor LPA; type: binding; settings: LPA (glycerol backbone)
Experimental: as §1, §2

[5] = Competitive ELISA for cross reactivity of anti-S1P mAb, competitor DH-S1P; type: binding
Experimental: as §1, §2

[6] = BIAcore binding kinetics of anti-S1P mAb to immobilized S1P; settings: depending on monovalent or bivalent binding model, read-out: affinity of the monoclonal antibody to S1P
Experimental: Binding kinetics: The binding kinetics of S1P to its receptor or other moieties has, traditionally, been problematic because of the nature of lipids. Many problems have been associated with the insolubility of lipids. For BIAcore measurements, these problems were overcome by directly immobilizing S1P to a BIAcore chip. Antibody was then flowed over the surface of the chip and alterations in […] were measured to determine the binding characteristics of the antibody to S1P. To circumvent the bivalent binding nature of antibodies, S1P was coated on the chip at low densities. Additionally, the chip was coated with various densities of S1P (7, 20, and 1000 RU) and antibody binding data was globally fit to a 1:1 interaction model.

[7] = Competitive ELISA for cross reactivity of anti-S1P mAb, competitor C1P; type: binding; settings: C1P (amino group esterified to a fatty acid)
Experimental: as §1, §2

[8] = ELISA with exchanged crosslinker or protein carrier in the laydown material; type: binding
Description: For example, the normal crosslinker SMCC was exchanged for IOA in conjugating the thiolated-S1P to BSA as the laydown material in the ELISA. […] Similarly, KLH was exchanged for BSA as the protein that was complexed with thiolated-S1P as the laydown material.

binding to S1P compared with the chimeric antibody ([1]; ELISA, substitution of Cys at position 50 of heavy chain): did not alter the binding | Binding [1]: 2 OD
Molecule: CysPhe

Binding [1]: 1.6 OD
Molecule: MetLeu

Molecule: lysophosphatidic acid [LPA]
increase of the expression of IL-8 (Caki-1 cells): 100%

competition for the mAb binding to S1P on the plate ([2]; competitor free S1P): can compete for binding | antibody binding [4]: no binding | competition for the mAb binding to S1P on the plate [5]: can compete for binding | Kd ([6]; lower end): ~0.088 nM | Kd ([6]; upper end): ~99 nM | antibody binding [7]: no antibody binding was observed | binding characteristics versus BSA laydown ([8]; KLH exchanged for BSA as protein): no significant difference | binding characteristics versus BSA-SMCC-thiolated-S1P laydown ([8]; SMCC exchanged for IOA): nearly identical
B1: anti-S1P mAb: murine IgG1 kappa monoclonal antibody against S1P from hybridoma clone 306D326.26 (ATCC SD-5362) (antibody, V domains shown)
VH: QAHLQQSDAELVKPGASVKISCKVSGFIFIDHTIHWMKQRPEQGLEWIGCISPRHDITKYNEMFRGKATLTADKSSTTAYIQVNSLTFEDSAVYFCARGGFYGSTIWFDFWGQGTTLTVS
VL: ETTVTQSPASLSMAIGEKVTIRCITTTDIDDDMNWFQQKPGEPPNLLISEGNILRPGVPSRFSSSGYGTDFLFTIENMLSEDVADYYCLQSDNLPFTFGSGTKLEIK
distinction of thiolated-S1P analog (compound 10) from natural S1P ([2]; competition experiment): unable to distinguish | competition for the mAb binding to S1P on the plate [3]: somewhat reduced; also recorded: only slightly competes for binding
